Data on 41 sequences can be found in the nanobody polyreactivity screen of Harvey et al. (2022).

This series is described as follows: yeast display, Sf9 membrane polyspecificity reagent, FACS + sequencing; frameworks hold sequencing errors. The method in brief: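 Using colony PCR, genes from sorted yeast display clones were amplified, then sequenced on MiSeq at 2 × 250 and filtered by CDR length. The clones had been stained with 10% biotinylated, detergent-solubilized Sf9 membrane reagent for 1 hour at 4 °C and sorted by FACS into low and high (top ~1%) gates on anti-HA and streptavidin fluorescence. Polyreactivity labels come from the gate of origin.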
Turning to “QVQLVESGGGLVQAGGSLRLSCAASGSIFVYYAMGWYRQAPGKERELVAAINSGSITKYADSVKGRFTISRDNAKNTVYLQMNSLKPEYTAVYYCAARYDNTYRTETSYPRYYSWGQGTQVTVSS”, the “polyreactivity (PSR sort gate)” value is listed as “high polyreactivity”. In the case of “QVQLVESGGGLVQAGGSLRLSCAASGRTFYAYTMGWYRQAPGKERELVAAISSSGGSTYYADSVKGRFTISRDNAKNTVYLQMNSLKPEDTAVYYCAAVWYFNRRVSGYYYWGQGTQVTVSS” it was “high polyreactivity”.

With “QVQLVESGGGLVQAGGSLRLSCAASGNIFYRNAIGWYRQAPGKERELVAAIRGGGSTNYADSVKGRFTISRDNAKNTVYLQMNSLKPEDTAVYYCNTVRSPPGHDYWGQGTQVTVSS”, the “polyreactivity (PSR sort gate)” value was “low polyreactivity”. For the sequence “QVQLVESGGGLVQAGGSLRLSCAASGFIIDVYAMGWYRHAPGKERELVAAISRSGGSTYYADSVKGRFTISRDNAKNSVYLQMNSLKPEDTAVYYCNAPGVTRAYLVGYDYWGQGSQVTVSS”, the “polyreactivity (PSR sort gate)” value is on record as “low polyreactivity”. In the case of “QVQLVESGGGLVQAGGSLRLSCAASGFTFRSNVMGWYRQAPRKERELVAAIRWSGGSTYYADSVKGRFTISRDNAMNTVYLQMNSLKPDDTAVYYCNARIYRSGYKFNYWGQGTQVTVSS” it was “high polyreactivity”; in that of “QVQLVESGGGLVQAGGSLRLSCAASGLTFRKYAMGWYRQAPGKERELVAAITRGGSTNYADSVKGRFTISRDNAKNTVYLQMNSLKPEDTAVYYCNTRPYRPFDYWGQGTQVTVSS”, “high polyreactivity”; in that of “QVQLVESGGGLVQARGSLRLSCAASGRIFPGYAMGWYRQAPGKERELVAGISNDASTNYADSVKGRFTISRDNAKNTVYLQMNSLKPEDTAVYYCAAEISSLSFPRYDYWGQGTQVTVSS”, “low polyreactivity”. For the sequence “QVQLVESGGGLVQAGGSLRLSCAASGSIFPIYAMGWYRQAPGKERELVAAIDSSGGSTYYADSVKGRFTISRDNAKNTVYLQMNSLKPEDTAVYYCAADFGSKSTPYDYWGQGTQVTVSS”, the “polyreactivity (PSR sort gate)” value is recorded as “low polyreactivity”. The entry for “QVQLVESGGGLVQAGGSLRISCAASGRTLGAYALGWSRQAPGKERELVAVISRRGGSTYYADSVKGRFTISRVNAKNTVYLQMNSLKPEDSAVYYCARTTLLYRTLSPGEYWGQGTQVTVSS” is “high polyreactivity”. The entry for “QVQLVESGGGLVQAGGSLRLSCAASGNTFAPNAMGWYRQAPGKERELVAVISWSSGRTYYADSVKGRFTISRDNAKNTVYLQMNSLKPEDTAVYYCAARFGSGFNYWGQGTQVTVSS” is “high polyreactivity”; for “QVQLVESGGGLVQAGGSLRLSCAASGSIFWSNAMGWYRQAPGKESELVATIDDDVGSTYYADSVMGRFTISRDNAKNTVYLQMNSLKPEDTAVYYCAADSVYYVIPYEYWGQGTQVTVSS” it is “low polyreactivity”; for “QVQLVESGGGLVQAGGSLRLSFAASGLIVTGYAMGWYRQRPGKEREVVAAITSGGGTNYADSVKGRFTISRDNAKNTVDLQMNSLKPEDTAVYYCAVDFGHYYLYSITSYLWYWDGYDYWGQGTQVTVSS” it is “low polyreactivity”. In the case of “QVQLVESGGGLVQAGGSLRLSCAASGRTCGGYAMGWYRQEPGNERELVAAISYRGARTYYADSVKGRFTISRDNAKNTVYLQMNSRKPEDTAVYYCAASRPGLRTPGQMGYWGQGTQVTVSS” it was “high polyreactivity”; in that of “QVQLVESGGGLVQAGGSLRLSCAASGITLYKYTMGWYRQAPGKERELVAAISGGGSTTYADSVKGRFTISRDNAKNTVYLQMNSLKPEDTAVYYCNVPGGKPSYYEEYGYWGQGTQVTVSS”, “low polyreactivity”.

For “QVQLVESGGGLVQAGGSRRLSCAPSGKIFGSNAMGSYRQAPGKERELVAAISKSCGRTYYADSVKGRFTISRDNAKNTVYLQMNCLKPEDSAVYYCGAYDGYYEFDYWGQGTQVPVSS”, the “polyreactivity (PSR sort gate)” value is on record as “low polyreactivity”. Consider “QVQLVESGGGLVQAGGSLRLRCAASGLIFIFNAMGWYRQAPGKERELVAAIDTSDDSTYYADSVKGRFTISRDNAKNTVYLQMNSMKPEDTAVYYCAAEELSNYEYWGQGTQVTVSS”, for which the “polyreactivity (PSR sort gate)” value is “low polyreactivity”.

“QVQLVESGGGLVQAGGSLRLSCAASGYTFSRYAMGWYRQAPGKERELVAAITGRGGSTYYADSVKGRFTISRDNAKNTVYLQMNSLKPEDTAVYYCAAPFGWRPLPISKVTSDYWGQGTQVTVSS”: the “polyreactivity (PSR sort gate)” value is listed as “high polyreactivity”. As for “QVQLVESGGGLVQAGGSLRLSCAASGSIFYDNAMGWYRQAPGKERELVAAIRGRGGSTYYADSVKGRFTISRDNAKNTVYLQMNSLKPEDTAVYYCNALNYRYRKYDYWGQGTQVTVSS”, the “polyreactivity (PSR sort gate)” value is reported as “high polyreactivity”. As for “QVQLVESGGGLVQAGGSLRLSCAASGYIFGSYVMGWYRQAPGKERELVAAISRRGGSTYYADSVKGRFTISRDNAKNTVNLQMNSLKPEYTAVYYFSADYGQYAKYDYWGQGTQVTVSS”, the “polyreactivity (PSR sort gate)” value is on record as “high polyreactivity”. In the case of “QVQLVESGGGLVQAGGSLRLSCAASGSTFVGYAMGWYRQAPGKERELVADITSGGGITYYADSVKGRFTISRDNAKNTVYLQMNSLKPEDTAVYYCAVQYYNVLYYQYDYWGQGTQVTVSS” it was “low polyreactivity”; in that of “QVQLVESGGGLVQAGGSLRLSCAASGFTFSFYAMGWYRQAPGKERELVAAIDRSGGSTYYADSVKGRFTISRDNAKNTVYLQMNSLKPEDTAVYYCAATVFYGYYYWGQGTQVTVSS”, “high polyreactivity”; in that of “QVQLVESGGGLVQAGGSLRLSCAASGRTLGIYAMGWYRQAPGTERELVAAITLSGSDTYYADSVKGRFTISRDNAKNTVDLQMNSLKPEDTAVYYCAAKTYGGYGKYGYWGQGTQVTVSS”, “low polyreactivity”. The entry for “QVQLVESGGGLVQAGGSLRLSCAASGRTFRYYVMGWYRQAPGKERELVATITSNGDSTYYADSVKGRFTISRDNAKNTVYLQMNSLKPEDTAVYYCAVRWRDYRGSYRGFEYWGQGTQVTVSS” is “high polyreactivity”. In the case of “QVQLVESGGGLVQAGGSLRLSCAASGRIFGIYTMGWYRQAPGKERELVAAISRSGGSTYYADSVKGRFTISRDNAKNTVYLQMNSLKPEDTAVYYCAAVPYRFPGYGFDSWGQGTQVTVSS” it was “high polyreactivity”; in that of “QVQLVEKGGGLVQAGGSLRLSCAASGSTFRNNAMGRYREAPGKERELVAAIPYSGDSTSYADSVKGRFTISRDNAKNTVYLQMNSLKPEDTAVYYCNAAIDGIYLGSYTAYGYDSWGQGTQVTVSS”, “low polyreactivity”; in that of “QVQLVESGGGLVQAGGSLRLRCAPSGFIFNTMGWYRQAPGKERDLVATISWSDGSTYYADSVKGRFTISRDNAKNTVYLHMNSLKTEDTADYYCAATTDALVGRPRYDYWGQGTQVTVSS”, “low polyreactivity”. For the sequence “QVQLVESGGGLVQAGGILRLSCAASGSTFPGYAMGWYRQAPGKERELVAAISGNGVITYYADSVKGRFTISRDNAKNTVYLQMNSLKPEDTAVYYCNADRLYWGGYYGLTYWGQGTQVTVSS”, the “polyreactivity (PSR sort gate)” value was “low polyreactivity”. The entry for “QVQLVESGGGLVQAGGSLRLSCDASGSTFFANAMGWYRQAPGKERELVAAITIGNTNYADSVKGRFTISRDNAKYTVYLQMNSLKPEDTAVYYCNASHVSHYRARDYWGQGTQVTVSS” is “low polyreactivity”; for “QVHLVESGGGLVQAGGSLRLSCAASGRIFVGYAMGWSRQAPGKERELVAASTSGGITNYADSVKGRFTISRDNAKNTVYIQMTSLKPEATAVYYCNVKRRVSGYYGYKDYYWGQGTQVTVSS” it is “high polyreactivity”; for “QVQLVESGGGLVQAGGSLRLSCAASGRTFAWYAMGWYRQAPGKERELVAAISWSSDTTYYADSVKGRFTISRDNAKNTVYLQMNSLKPEDTAVYYCAAVFQGYTRKYYYWGQGTQVTVSS” it is “high polyreactivity”.

On to “QVQLVESGGGLVQAGGSLRLSCAASGSTFDLYAMGWYRQAPGKERELVAAISSSGGRTYYADAVKGRFTISRDNAKNTVYLQMNSLKPEDTAVYDCAAVGYKYSRYDYWGQGTQVTVSS”, for which the “polyreactivity (PSR sort gate)” value is “high polyreactivity”. With “QVQLVESGGGLVQAGGSLRLSCAASGIIFYFYAMGWSRQAPGKERELVAAISSGGGSTYYADSVKGRFTISRDNAKNTVYLQMNSLKPEDTAVYYCAAKIGRNFDWGQGTQVTVSS”, the “polyreactivity (PSR sort gate)” value is reported as “high polyreactivity”. In the case of “QVQLVESGGGLVLAGGSLRLSCAASGSTFFSYMGWYREAPGKERELVAANTSGAITYYADSVKGRFTISRDNAKNTVYLQMNSLKPEDTAVYYCNTDRYYVTLRNLEMDYWGQGTQVTVSS”, the “polyreactivity (PSR sort gate)” value is given as “low polyreactivity”. On to “QVQLVESGGGLVQAGGSLRLSCAASGGIFYLNAMGWYRQAPRKERELVAAITGTGGNTYYADSVKGRFTISRDNAKNTVYLQMNSLKPEDTAVYYCAAAAIGVGSGPFGIGWEEYYYWGLGTQVTVSS”, for which the “polyreactivity (PSR sort gate)” value is “low polyreactivity”. “QVQLVESGGGLVQAGGSLRLSCASSGFTFSVYAMGWYREAPGKERELVAAITWRGGSTYYADSVKGRFTISRDNAKNTVYLQMNSLKPEDSAVYYCAVLYPKYGKRYGYWGQGTQVTVSS”: the “polyreactivity (PSR sort gate)” value is “high polyreactivity”. In the case of “QVQLVESGGGLVQAGGSLRLSCAASGFTFYTYAMGWYRQAPGKERELVAGISTRGGRTYYADSVKGRFTISRDNAKNTVYLQMNSLKPEDTAVYYCNAVDKTGKYDYWGQGTQVTVSS” it was “high polyreactivity”. In the case of “QVQLVESGGGLVQAGGSLRLSCAASGSTFTPYAMGWYRQAPGKERELVAGITGNGGSTRYADSVKGRFTISRDNAKNTVYLQMNSLKTEDTAVYYCAARWTRERYRTSYYSWGQGTQVTVSS” it was “high polyreactivity”. With “QVQLVESGGGLAQAGGSLRLSCAASGSTFNSNAMGWSRQAPGKERELVAAISRSGGRTYYADSVKGRFTISRDIAKNTVYLQMNSLKPEDTAVYYCAAGCQYISRRGYDYWGQGTQVTVSS”, the “polyreactivity (PSR sort gate)” value was “high polyreactivity”. In the case of “QVQLVESGGGLVQAGGSLRLSCAASGFIFYDYAMGWYRQAPGKERELVASISWSSGSTYYADSVKGRFTISRDNAKNTVYLQMNSLKPEDTAVYYWAADGYPLQLYNYWGLGTQVTVSS” it was “low polyreactivity”; in that of “QVQLQESGGGLVQAGGSLRLSCSASGNISVTGVMGWYRQAPGKERELVPSIGIGGTTYYADSVKGRFSISRDNATITVYLQMNSLKPQDTAVYYCAARYLYYAYSYWGQGTQVTVSS”, “low polyreactivity”. On to “QVQLVESGGGLVQAGGSLRLSCAASGSIFRFNAMGWSRQAPGKERELVARITSGGSTNYADSVKGRFTISRDNAKNTVYLQMNSLKPEDTAVYYCAAVYLLRGRRVTSYPYGYWGQGTQVTVSS”, for which the “polyreactivity (PSR sort gate)” value was “high polyreactivity”.
